The source of these data is paper PMC9881170.

Data set [1] addresses 55S mitoribosome (crude);mtIF2;mtIF3 (bovine (liver);Homo sapiens;Homo sapiens) (UniProt P46199+Q9H2K0). The experiment in a line: co-sedimentation. The conditions noted are these: 200 nM 55S or 28S, 240 nM mtIF2, 240 nM mtIF3, 240 nM fMet-tRNAfMet, 400 nM mRNA, 37 C 30 min (then ice 15 min for mRNA binding), filter wash with 20 mM Mg2+ ….
Data set [2] has as its target 55S mitoribosome (re-associated);mtIF2;mtIF3 (Homo sapiens (HEK293S TetR GnTI-);Homo sapiens;Homo sapiens) (UniProt P46199+Q9H2K0). The experiment in a line: sucrose gradient co-sedimentation, Cy3 fluorescence. As to conditions: + E. coli fMet-tRNAfMet; 200 nM 55S or 28S, 240 nM mtIF2, 240 nM mtIF3, 240 nM fMet-tRNAfMet, 400 nM mRNA; 37 C 30 min (then ice 15 min for mRNA binding); filter wash with 20 mM Mg2+ ….

Data set [3] deals with 55S mitoribosome, subunits crosslinked;mtIF2 (Homo sapiens (HEK293S TetR GnTI-);Homo sapiens) (UniProt P46199). Described as above. The conditions noted are these: + E. coli fMet-tRNAfMet; no mtIF3; 200 nM 55S or 28S, 240 nM mtIF2, 240 nM mtIF3, 240 nM fMet-tRNAfMet, 400 nM mRNA; 37 C 30 min (then ice 15 min for mRNA binding); filter wash with 20 mM Mg2+ ….

Sequence of UniProt P46199 (P46199 whole entry, looked up, tested part not stated): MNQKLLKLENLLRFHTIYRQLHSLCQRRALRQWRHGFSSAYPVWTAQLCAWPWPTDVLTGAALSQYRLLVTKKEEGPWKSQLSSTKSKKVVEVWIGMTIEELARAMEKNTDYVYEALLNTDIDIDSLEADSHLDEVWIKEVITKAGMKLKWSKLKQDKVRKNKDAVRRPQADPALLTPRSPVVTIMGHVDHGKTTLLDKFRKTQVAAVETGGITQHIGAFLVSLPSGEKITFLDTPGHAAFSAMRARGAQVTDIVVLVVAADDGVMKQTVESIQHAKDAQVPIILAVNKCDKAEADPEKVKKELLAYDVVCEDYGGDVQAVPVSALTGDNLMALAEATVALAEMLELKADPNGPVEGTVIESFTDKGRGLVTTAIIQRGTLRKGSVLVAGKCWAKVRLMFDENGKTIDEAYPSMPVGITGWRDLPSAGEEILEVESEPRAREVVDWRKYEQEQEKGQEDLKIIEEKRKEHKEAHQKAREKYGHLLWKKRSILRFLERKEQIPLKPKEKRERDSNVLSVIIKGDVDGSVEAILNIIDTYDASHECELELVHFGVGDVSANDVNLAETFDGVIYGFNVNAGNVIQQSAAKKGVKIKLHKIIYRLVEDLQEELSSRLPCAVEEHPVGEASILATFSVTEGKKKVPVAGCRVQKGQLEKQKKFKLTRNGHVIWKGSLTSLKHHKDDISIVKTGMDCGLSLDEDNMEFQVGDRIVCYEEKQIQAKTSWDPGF

Consider fMet-tRNAfMet (35S), for which the binding signal (% of 55S with [35S]-fMet-tRNAfMet) in data set [1] (+ 30-nt leaderless mRNA S2, EF-Tu, Phe-tRNAPhe) amounted to 27. With “AUGGCACAUGCAGCGCAAGUAGGUCUACAA [MTCO2 mRNA first 30 nt]”, the results for the binding signal (% of 55S with mRNA bound) in data set [2] and in data set [3] were 50 and 25, respectively. In the case of Phe-tRNAPhe, the binding signal (% of 55S with [3H]-Phe-tRNAPhe) in data set [1] (+ EF-Tu, 30-nt leaderless mRNA S2, fMet-tRNAfMet) was 22.
